Measurements from PMC10786891, “Massively parallel profiling of RNA-targeting CRISPR-Cas13d”.
Where a chain is given by its changes, count along the chain named. In names and notes the source's numbering stands.

T1: EsCas13d, nuclease-dead (Eubacterium siraeum, UniProt B0MS50, R295A;H300A;R849A;H854A)
T1 sequence: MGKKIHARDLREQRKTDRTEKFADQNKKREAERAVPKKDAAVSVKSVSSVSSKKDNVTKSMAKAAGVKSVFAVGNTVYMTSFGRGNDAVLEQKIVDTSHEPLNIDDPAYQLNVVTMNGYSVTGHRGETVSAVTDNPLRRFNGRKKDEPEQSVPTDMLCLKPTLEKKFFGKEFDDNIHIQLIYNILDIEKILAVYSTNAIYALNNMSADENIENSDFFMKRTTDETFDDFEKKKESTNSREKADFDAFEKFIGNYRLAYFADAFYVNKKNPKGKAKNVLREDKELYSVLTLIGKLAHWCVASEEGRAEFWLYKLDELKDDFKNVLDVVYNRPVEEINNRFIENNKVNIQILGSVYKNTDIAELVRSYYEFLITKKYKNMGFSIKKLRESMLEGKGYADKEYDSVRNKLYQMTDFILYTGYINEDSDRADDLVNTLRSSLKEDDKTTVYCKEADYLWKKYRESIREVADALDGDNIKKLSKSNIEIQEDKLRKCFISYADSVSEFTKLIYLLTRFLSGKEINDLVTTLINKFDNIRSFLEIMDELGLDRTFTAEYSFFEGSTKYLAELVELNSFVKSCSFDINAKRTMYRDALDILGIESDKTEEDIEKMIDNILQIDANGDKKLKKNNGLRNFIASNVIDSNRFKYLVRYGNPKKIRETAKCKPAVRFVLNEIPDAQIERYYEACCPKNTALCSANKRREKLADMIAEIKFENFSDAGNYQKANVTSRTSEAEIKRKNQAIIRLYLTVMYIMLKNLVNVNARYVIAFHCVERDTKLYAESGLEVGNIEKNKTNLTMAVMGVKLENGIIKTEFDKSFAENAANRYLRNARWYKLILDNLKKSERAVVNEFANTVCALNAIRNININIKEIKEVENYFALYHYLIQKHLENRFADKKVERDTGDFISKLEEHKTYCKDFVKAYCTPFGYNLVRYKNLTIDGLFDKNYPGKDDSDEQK

B1: target 1 MT 5'PFS CAA 3'PFS UCG (mixed)
RNA 1: CACCCGUGCAAAAAUGCAGGGGUCUAAAACUGAGCGGAUAACCUCUCUAUGG
RNA 2: GGGAAUGGAUCCACAUCUACGAAUUCCAACCAUAGAGAGGUUAUCCGCUCAUCGAGAUCGGAAGAGCACACGU
B2: target 1 MT 5'PFS GUA 3'PFS UAA (mixed)
RNA 1: B1 RNA 1
RNA 2: B1 RNA 2 with C27G, A28U, C53A, G54A
B3: target 1 MT 5'PFS GAC 3'PFS UUC (mixed)
RNA 1: B1 RNA 1
RNA 2: B1 RNA 2 with C27G, A29C, C53U, G54C
B4: target 1 MT 5'PFS UUG 3'PFS AUG (mixed)
RNA 1: B1 RNA 1
RNA 2: B1 RNA 2 with C27U, A28U, A29G, U52A, C53U
B5: target 1 MT 5'PFS GUA 3'PFS UAC (mixed)
RNA 1: B1 RNA 1
RNA 2: B1 RNA 2 with C27G, A28U, C53A, G54C
B6: target 1 MT 5'PFS UUA 3'PFS CAG (mixed)
RNA 1: B1 RNA 1
RNA 2: B1 RNA 2 with C27U, A28U, U52C, C53A
B7: target 1 MT 5'PFS GCU 3'PFS UUA (mixed)
RNA 1: B1 RNA 1
RNA 2: B1 RNA 2 with C27G, A28C, A29U, C53U, G54A
B8: target 1 MT 5'PFS GUA 3'PFS GGA (mixed)
RNA 1: B1 RNA 1
RNA 2: B1 RNA 2 with C27G, A28U, U52G, C53G, G54A
B9: target 1 MT 5'PFS GCA 3'PFS UAG (mixed)
RNA 1: B1 RNA 1
RNA 2: B1 RNA 2 with C27G, A28C, C53A
B10: target 1 MT 5'PFS GCA 3'PFS UAU (mixed)
RNA 1: B1 RNA 1
RNA 2: B1 RNA 2 with C27G, A28C, C53A, G54U
B11: target 1 MT 5'PFS UGC 3'PFS UCG (mixed)
RNA 1: B1 RNA 1
RNA 2: B1 RNA 2 with C27U, A28G, A29C
B12: target 1 MT 5'PFS GCA 3'PFS UAC (mixed)
RNA 1: B1 RNA 1
RNA 2: B1 RNA 2 with C27G, A28C, C53A, G54C
B13: target 1 MT 5'PFS GUA 3'PFS UAG (mixed)
RNA 1: B1 RNA 1
RNA 2: B1 RNA 2 with C27G, A28U, C53A
B14: target 1 MT 5'PFS GCU 3'PFS UUG (mixed)
RNA 1: B1 RNA 1
RNA 2: B1 RNA 2 with C27G, A28C, A29U, C53U
B15: target 1 MT 5'PFS GCA 3'PFS UAA (mixed)
RNA 1: B1 RNA 1
RNA 2: B1 RNA 2 with C27G, A28C, C53A, G54A
B16: target 1 insU 3' of 13,insA 3' of 13 (mixed)
RNA 1: B1 RNA 1
RNA 2: GGGAAUGGAUCCACAUCUACGAAUUCGUACCAUAGAGAGUAGUUAUCCGCUCACCGAGAUCGGAAGAGCACACGU
B17: target 1 MT 5'PFS UGC 3'PFS UCC (mixed)
RNA 1: B1 RNA 1
RNA 2: B1 RNA 2 with C27U, A28G, A29C, G54C
B18: target 1 MT 5'PFS CUA 3'PFS AAG (mixed)
RNA 1: B1 RNA 1
RNA 2: B1 RNA 2 with A28U, U52A, C53A
B19: target 1 MT 5'PFS GGA 3'PFS UCU (mixed)
RNA 1: B1 RNA 1
RNA 2: B1 RNA 2 with C27G, A28G, G54U
B20: target 1 MT 5'PFS GAG 3'PFS UGU (mixed)
RNA 1: B1 RNA 1
RNA 2: B1 RNA 2 with C27G, A29G, C53G, G54U
B21: target 1 MT 5'PFS UGC 3'PFS UCA (mixed)
RNA 1: B1 RNA 1
RNA 2: B1 RNA 2 with C27U, A28G, A29C, G54A
B22: target 1 MT 5'PFS GAG 3'PFS AGU (mixed)
RNA 1: B1 RNA 1
RNA 2: B1 RNA 2 with C27G, A29G, U52A, C53G, G54U
B23: target 1 MT 5'PFS UUA 3'PFS CAA (mixed)
RNA 1: B1 RNA 1
RNA 2: B1 RNA 2 with C27U, A28U, U52C, C53A, G54A
B24: target 1 MT 5'PFS UUG 3'PFS AUC (mixed)
RNA 1: B1 RNA 1
RNA 2: B1 RNA 2 with C27U, A28U, A29G, U52A, C53U, G54C
B25: target 1 MT 5'PFS CUA 3'PFS UGA (mixed)
RNA 1: B1 RNA 1
RNA 2: B1 RNA 2 with A28U, C53G, G54A
B26: target 1 insC 3' of 18,insC 3' of 3 (mixed)
RNA 1: B1 RNA 1
RNA 2: GGGAAUGGAUCCACAUCUACGAAUUCGUACCAUACGAGAGGUUAUCCGCUCCACCGAGAUCGGAAGAGCACACGU
B27: target 1 MT 5'PFS AUG 3'PFS CCC (mixed)
RNA 1: B1 RNA 1
RNA 2: B1 RNA 2 with C27A, A28U, A29G, U52C, G54C
B28: target 1 MT 5'PFS GUA 3'PFS UGU (mixed)
RNA 1: B1 RNA 1
RNA 2: B1 RNA 2 with C27G, A28U, C53G, G54U
B29: target 1 MT 5'PFS CUA 3'PFS CGU (mixed)
RNA 1: B1 RNA 1
RNA 2: B1 RNA 2 with A28U, U52C, C53G, G54U
B30: target 1 MT 5'PFS GCU 3'PFS UUU (mixed)
RNA 1: B1 RNA 1
RNA 2: B1 RNA 2 with C27G, A28C, A29U, C53U, G54U
B31: target 1 MT 5'PFS GUA 3'PFS UAU (mixed)
RNA 1: B1 RNA 1
RNA 2: B1 RNA 2 with C27G, A28U, C53A, G54U
B32: target 1 MT 5'PFS GUA 3'PFS GGG (mixed)
RNA 1: B1 RNA 1
RNA 2: B1 RNA 2 with C27G, A28U, U52G, C53G
B33: target 1 MT 5'PFS GAG 3'PFS AGA (mixed)
RNA 1: B1 RNA 1
RNA 2: B1 RNA 2 with C27G, A29G, U52A, C53G, G54A
B34: target 1 G5C,A16G (mixed)
RNA 1: B1 RNA 1
RNA 2: B1 RNA 2 with C27G, A28U, A36G, G47C, U52C
B35: target 1 MT 5'PFS GUA 3'PFS GGU (mixed)
RNA 1: B1 RNA 1
RNA 2: B1 RNA 2 with C27G, A28U, U52G, C53G, G54U
B36: target 1 MT 5'PFS GUA 3'PFS GGC (mixed)
RNA 1: B1 RNA 1
RNA 2: B1 RNA 2 with C27G, A28U, U52G, C53G, G54C
B37: target 1 MT 5'PFS GCU 3'PFS UUC (mixed)
RNA 1: B1 RNA 1
RNA 2: B1 RNA 2 with C27G, A28C, A29U, C53U, G54C
B38: target 1 MT 5'PFS UUG 3'PFS AUA (mixed)
RNA 1: B1 RNA 1
RNA 2: B1 RNA 2 with C27U, A28U, A29G, U52A, C53U, G54A
B39: target 1 MT 5'PFS GAC 3'PFS UUA (mixed)
RNA 1: B1 RNA 1
RNA 2: B1 RNA 2 with C27G, A29C, C53U, G54A
B40: target 1 MT 5'PFS CUG 3'PFS ACG (mixed)
RNA 1: B1 RNA 1
RNA 2: B1 RNA 2 with A28U, A29G, U52A

Target: T1, EsCas13d, nuclease-dead
Assay: crRNA (strand 1, pre-loaded); Mg2+; 40 mM Tris-HCl pH 7.5, 150 mM NaCl, 6 mM MgCl2, 1 mM DTT, 0.1% Tween-20, 0.2 mg/ml BSA; 25 C; 10 min per concentration, then washed
Settings: tags: His6-TwinStrep-SUMO cleaved; N-terminal SNAP kept (SNAP-Surface 488); label: 3' end held by stalled T7 RNA polymerase

**Q.** With B1 as the binder, how does the Kd read?
**A.** 12.2 ± 3.6 nM

**Q.** With B2 as the binder, how does the Kd read?
**A.** 13.8 ± 1.35 nM

**Q.** For B3, which Kd is on record?
**A.** 14.1 ± 4.25 nM

**Q.** B4 was tested. Which Kd did it give?
**A.** 83 ± 35 nM

**Q.** Which Kd does the source give for B5 here?
**A.** 13.2 ± 1.25 nM

**Q.** How did the Kd turn out when B6 was run?
**A.** 49.5 ± 20 nM

**Q.** B7 was tested. Which Kd did it give?
**A.** 22 ± 5 nM

**Q.** With B8 as the binder, how does the Kd read?
**A.** 15.8 ± 2.45 nM

**Q.** With B9 as the binder, how does the Kd read?
**A.** 19.4 ± 4.95 nM

**Q.** Which Kd does the source give for B10 here?
**A.** 10.8 ± 1.45 nM

**Q.** B11 was tested. Which Kd did it give?
**A.** 12.1 ± 2.7 nM

**Q.** How did the Kd turn out when B12 was run?
**A.** 14 ± 2.55 nM

**Q.** B13 was tested. Which Kd did it give?
**A.** 13.7 ± 0.9 nM

**Q.** Which Kd does the source give for B14 here?
**A.** 61 ± 23.5 nM

**Q.** For B15, which Kd is on record?
**A.** 19 ± 6.5 nM

**Q.** Which Kd does the source give for B16 here?
**A.** 4.35 ± 0.17 nM

**Q.** With B17 as the binder, how does the Kd read?
**A.** 30 ± 10.5 nM

**Q.** For B18, which Kd is on record?
**A.** 11.4 ± 4 nM

**Q.** With B19 as the binder, how does the Kd read?
**A.** 13.5 ± 2.5 nM

**Q.** How did the Kd turn out when B20 was run?
**A.** 64.5 ± 30.5 nM

**Q.** With B21 as the binder, how does the Kd read?
**A.** 11.5 ± 5.3 nM

**Q.** With B22 as the binder, how does the Kd read?
**A.** 47.5 ± 16.5 nM

**Q.** For B23, which Kd is on record?
**A.** 49 ± 21 nM

**Q.** For B24, which Kd is on record?
**A.** 37.5 ± 13 nM

**Q.** Which Kd does the source give for B25 here?
**A.** 22 ± 7.5 nM

**Q.** With B26 as the binder, how does the Kd read?
**A.** 32 ± 4 nM

**Q.** Which Kd does the source give for B27 here?
**A.** ~40.5 nM

**Q.** With B28 as the binder, how does the Kd read?
**A.** 19.1 ± 0.95 nM

**Q.** With B29 as the binder, how does the Kd read?
**A.** 17 ± 6 nM

**Q.** With B30 as the binder, how does the Kd read?
**A.** 24.1 ± 3.8 nM

**Q.** With B31 as the binder, how does the Kd read?
**A.** 9.75 ± 0.7 nM

**Q.** B32 was tested. Which Kd did it give?
**A.** 30.6 ± 3.7 nM

**Q.** Which Kd does the source give for B33 here?
**A.** 37 ± 13 nM

**Q.** For B34, which Kd is on record?
**A.** 65 ± 11 nM

**Q.** Which Kd does the source give for B35 here?
**A.** 20.7 ± 2 nM

**Q.** With B36 as the binder, how does the Kd read?
**A.** 7.25 ± 0.95 nM

**Q.** For B37, which Kd is on record?
**A.** 36.5 ± 9 nM

**Q.** B38 was tested. Which Kd did it give?
**A.** 58.5 ± 20 nM

**Q.** B39 was tested. Which Kd did it give?
**A.** 13.2 ± 4.3 nM

**Q.** With B40 as the binder, how does the Kd read?
**A.** 6.85 ± 1.6 nM
